What was measured:
[1] = system: PKC-δ in the nucleus of primary rat cardiac fibroblasts; experiment: Inhibition of MBG-induced PKC-δ nuclear translocation (Western blot); settings: MBG 2 nM; nuclei isolated 30 min later; FIG. 2a
Protocol: MBG was incubated with an anti-MBG antibody prior to addition to cultured primary rat cardiac fibroblasts. Nuclei were isolated 30 min later and analyzed for amount of PKC-6.

[2] = system: human umbilical cord venous endothelial cells (HUVEC); experiment: Reversal of MBG inhibition of HUVEC cell proliferation (3H-thymidine); assay type: cell-based; settings: MBG 2 nM, 48 hr
Protocol: MBG (2 nM) was incubated with an antibody (20 μg/mL in FIG. 3a with human anti-MBG mAbs, or varying concentrations (2.5-10 μg/mL) in FIG. 3b with humanized anti-MBG mAbs) prior to addition to cultured human umbilical cord venous endothelial cells (HUVEC). After 48 hr, DNA synthesis was assessed by incorporation of ^3H-thymidine.
HUVEC cells in endothelial cell growth medium were plated onto 96-well plates. The next day, the cells were pretreated with various antibodies (2.5-20 μg/mL) and then incubated with 2 nM MBG for 48 hr. [^3H]-Thymidine was added to each well. [^3H]-Thymidine-labeled DNA was assayed by harvesting the cells and assaying for ^3H using a PerkinElmer Wallac Tailux liquid scintillation counter. […] Means were tested for significance using Student's t-test.

[3] = Competitive ELISA, relative CTS specificity, free MBG as competitor; assay type: binding; settings: competition with immobilized MBG-BSA; normalized to MBG = 100%
Protocol: (§1) The specificity (relative affinity) of anti-MBG antibodies for MBG relative to various cardiotonic steroids (CTSs) was determined in a competitive ELISA. Each anti-MBG antibody was tested for its binding to immobilized MBG in the presence of free MBG, resibufogenin (RBG), cinobufagin (CINO), ouabain (OUB) or digoxin (DIG) as a competitor. A constant amount of an anti-MBG antibody (typically 1-5 μg/mL) and varying concentrations of each CTS (from 10^−12M to 10^−5M) were pre-incubated before being added to the MBG-BSA-coated wells. After washing of the wells, an anti-human Fc, HRP-conjugated secondary antibody (at 1:5000 dilution) was added to the wells and incubated at 37° C. for 1 hr. After washing of the wells, an appropriate HRP reagent (e.g., TMB ultra, Thermo Fisher) was added to the wells. OD at 450 nm was measured by a microplate reader. MBG at 10 μM was assumed to be 100% competed, and MBG at 1 pM was assumed to be 0% competed. The data was plotted as a titration of antibody-antigen binding relative to free CTS concentration in the competition reaction to determine the free CTS concentration (μM) giving 50% maximal binding of antibody to immobilized MBG. The relative specificity of an antibody for a CTS was normalized to MBG=100%.

[4] = Competitive ELISA, free CTS competitors overall (summary and footnote); assay type: binding; settings: competitors RBG, CINO, OUB, DIG; Table 2
Protocol: as §1

[5] = Competitive ELISA, relative CTS specificity, RBG as competitor; assay type: binding; settings: competition with immobilized MBG-BSA; normalized to MBG = 100%
Protocol: as §1

[6] = Competitive ELISA, relative CTS specificity, DIG as competitor; assay type: binding; settings: competition with immobilized MBG-BSA; normalized to MBG = 100%
Protocol: as §1

[7] = Competitive ELISA, relative CTS specificity, OUB as competitor; assay type: binding; settings: competition with immobilized MBG-BSA; normalized to MBG = 100%
Protocol: as §1

[8] = Competitive ELISA, relative CTS specificity, CINO as competitor; assay type: binding; settings: competition with immobilized MBG-BSA; normalized to MBG = 100%
Protocol: as §1

[9] = ELISA avidity estimate on MBG-BSA; assay type: binding; settings: wells coated with 2 μg/ml MBG-BSA; IgG
Protocol: (§2) The avidity of anti-MBG antibodies for MBG was estimated in an ELISA. Wells of a microtiter plate were coated with 2 μg/ml of either MBG-bovine serum albumin (BSA) or MBG-keyhole limpet hemocyanin (KLH). The wells were then blocked with 1% BSA. A test IgG antibody at varying concentrations (typically from about 0.0001 nM to about 25 nM) was added to the wells. The test IgG bound to immobilized MBG was detected with an anti-human Fc, horseradish peroxidase (HRP)-conjugated secondary antibody (Jackson ImmunoResearch). After washing of the wells, an appropriate HRP reagent (e.g., TMB ultra, Thermo Fisher) was added to the wells. Optical density (OD) at 450 nm was measured by a microplate reader. The concentration of test antibody at the midpoint of the binding curve is an estimate of avidity for MBG.

[10] = ELISA avidity estimate on MBG-KLH; assay type: binding; settings: wells coated with 2 μg/ml MBG-KLH; IgG
Protocol: as §2

Molecule | amount of PKC-δ in the nucleus, MBG plus antibody [1] | Rel. CTS Specificity as % of MBG Binding: MBG [3] | reaction with CTS competitor molecules [4] | Rel. CTS Specificity as % of MBG Binding: DIG [6] | Rel. CTS Specificity as % of MBG Binding: OUB [7] | Rel. CTS Specificity as % of MBG Binding: CINO [8] | also measured
H3L1: humanized anti-MBG antibody, VH H3 (SEQ ID NO: 11) with VL L1 (SEQ ID NO: 12) (antibody, V domains shown, Humanized VH sequence; Humanized VL sequence) VH: EVQLQESGPGLVKPSETLSLTCTVSGDSITSGYWNWIRQPPGKGLEYMGYISYSGTTYYNPSLKSRITISRDTSKNQYSLKLSSVTAADTAVYYCARARYGYGFDYWGQGTLVTVSS VL: DVVMTQSPLSLPVTLGQPASISCRSSQSIVHSNRNTYLEWFQQRPGQSPRRLIYKVSNRFSGVPDRFSGSGSGTDFTLKISRVEAEDVGVYYCFQGSHVPLTFGGGTKVEIK | reduced | – | – | – | – | – | –
H2L1: humanized anti-MBG antibody, VH H2 (SEQ ID NO: 10) with VL L1 (SEQ ID NO: 12) (antibody, V domains shown, Humanized VH sequence; Humanized VL sequence) VH: EVQLQESGPGLVKPSETLSLTCTVSGDSITSGYWNWIRQPPGKGLEYIGYISYSGTTYYNPSLKSRVTISRDTSKNQFSLKLSSVTAADTAVYYCARARYGYGFDYWGQGTLVTVSS VL: DVVMTQSPLSLPVTLGQPASISCRSSQSIVHSNRNTYLEWFQQRPGQSPRRLIYKVSNRFSGVPDRFSGSGSGTDFTLKISRVEAEDVGVYYCFQGSHVPLTFGGGTKVEIK | to a lesser extent | – | – | – | – | – | –
H2L2: humanized anti-MBG antibody, VH H2 (SEQ ID NO: 10) with VL L2 (SEQ ID NO: 13) (antibody, V domains shown, Humanized VH sequence; Humanized VL sequence) VH: EVQLQESGPGLVKPSETLSLTCTVSGDSITSGYWNWIRQPPGKGLEYIGYISYSGTTYYNPSLKSRVTISRDTSKNQFSLKLSSVTAADTAVYYCARARYGYGFDYWGQGTLVTVSS VL: DVVMTQSPLSLPVTLGQPASISCRSSQSIVHSNRNTYLEWYQQRPGQSPRLLIYKVSNRFSGVPDRFSGSGSGTDFTLKISRVEAEDVGVYYCFQGSHVPLTFGGGTKVEIK | to a lesser extent | – | – | – | – | – | MBG inhibition of HUVEC cell proliferation, humanized mAbs ([2]; antibody 2.5-10 μg/mL, FIG. 3b): significantly reduced
1B-6C: human anti-MBG antibody, VH SEQ ID NO: 87, VL SEQ ID NO: 88 (antibody, listed as Homo sapiens) VH: QVQLQESGPGLVKPSETLSLTCTVSGGSISSSSYYWGWIRQPPGKGLEWIGSIYYSGSTYYNPSLKSRVTISLDTSKNQFSLKLSSLTAADTAVYYCARVPAIRSSAIFDYWGQGTLVTVSS light: QSVVTQPPSVSAAPGQKVTISCFGSRSNIGNNYVSWYQQFPGTAPQLLIFDNNKRPSGIPDRFSGSKSGTSASLGITGVQTGDEAEYYCGAWDSSLSAGAVFGGGTKLTVLGQPKAAPSVTLFPPSSEELQANKATLVCLISDFYPGAVTVAWKADSSPVKAGVETTTPSKQSNNKYAASSYLSLTPEQWKSHRSYSCQVTHEGSTVEKTVAPTECS | – | 100% | – | – | – | – | –
2A-5A: human anti-MBG antibody, VH SEQ ID NO: 100, VL SEQ ID NO: 101 (antibody, listed as Homo sapiens) VH: QVQLQESGPGLVKPSETLSLTCTVSGGSISSSSYYWGWIRQPPGKGLEWIGSIYYSGSTYYNPSLKSRVTISVDTSKNQFSLKLSSVTAADTAVYYCARFSRGGPFLWGRGTLVTVSS light: QSVVTQPPSVSAAPGQKVTISCSGSSSNIGSYSVSWYQQLPGTAPKLLIYDNNKRPSGIPDRFSGSKSGTSATLGITGLQTGDEADYYCGTWDSSLSAYVFGSGTKVTVLGQPKANPTVTLFPPSSEELQANKATLVCLISDFYPGAVTVAWKADGSPVKAGVETTKPSKQSNNKYAASSYLSLTPEQWKSHRSYSCQVTHEGSTVEKTVAPTECS | – | 100% | reacted with the CTS competitors RBG, CINO and DIG | 2.5% | 0% | 2.5% | Rel. CTS Specificity as % of MBG Binding: RBG [5]: 10%
203/204: human anti-MBG antibody, VH SEQ ID NO: 30, VL SEQ ID NO: 31 (antibody, listed as Homo sapiens, V domains shown) VH: QLQLQESGPGLVKPSETLSLTCTVSGGSISSYYWGWIRQPPGKGLEWIGSIYYSGSTYYNPSLKSRVTISVDTSKNQFSLQLKSVTPEDTAVYYCARVRPPAATFDYWGQGTLVTVSS VL: QSVVTQPPSVSAAPGQKVSISCSGGSSNIGNNYVSWYQQLPGTAPRLLIYENNNRPSGIPDRFSGSKSGTSATLGITGLQTGDEADYYCGTWDSSLRAVVFGGGTKLTVL | – | 100% | reacted with CTS competitor RBG | 0% | 0% | 0% | Estimated avidity (KA) (antibody concentration at 50% maximal binding to antigen, or EC50), Antigen 1 (MBG-BSA) [9]: 0.32 nM; Rel. CTS Specificity as % of MBG Binding: RBG [5]: 10%; Estimated avidity (KA) (antibody concentration at 50% maximal binding to antigen, or EC50), Antigen 2 (MBG-KLH) [10]: 0.20 nM
R4CE-10H: human anti-MBG antibody, VH SEQ ID NO: 80, VL SEQ ID NO: 81 (antibody, listed as Homo sapiens) VH: QLQLQESGPGLVKPSQTLSLTCTVSGGSISSGGYYWSWIRQPPGKGLEWIGSIYHSGSTYYNPSLKSRVTISVDTSKNQFSLKLSSVTAADTAVYYCARVMYYYGSGSPYWYFDLWGRGTLVTVSS light: QSVVTQPPSVSAAPGQKVTISCSGSSSNIGKNFVSWYQQFPGTAPKFLIYENSKRPSGIPDRISGSKSGTSATLAITGLQTGDEADYYCGTWDSSLSAVVFGGGTKLTVLSQPKAAPSVTLFPPSSEELQANKATLVCLISDFYPGAVTVAWKADSSPVKAGVETTTPSKQSNNKYAASSY | – | 100% | – | – | – | – | –
205/207: human anti-MBG antibody, VH SEQ ID NO: 53, VL SEQ ID NO: 54 (antibody, listed as Homo sapiens, V domains shown) VH: QLQLQESGPGLVKPSETLSLTCTVSGGSISSSSYYWGWIRQPPGKGLEWIGSIYYSGSTYYNPSLKSRVTISVDTSKNQFSLKLSSVTAADTAVYYCARFHTWAPRAFDIWGQGTMVTVSS VL: QSVVTQPPSVSAAPGQEVTISCSGSSSNIGNNYVSWYQQLPGTAPKLLIYDNNKRPSGIPDRFSGSKSGTSATLGITGLQTGDEADYYCGTWDSSLSALFGGGTKLTVL | – | 100% | – | 0% | 0% | 0% | –
238/239: human anti-MBG antibody, VH SEQ ID NO: 41, VL SEQ ID NO: 42 (antibody, listed as Homo sapiens, V domains shown) VH: QLQLQESGPGLVKPSETLSLTCTVSGGSISSSSYYWGWIRQPPGKGLEWIGSIYYSGSTYYNPSLKSRVTISVDTSKNQFSLKLSSVTAADTAVYYCARVVVARTGTTISWFDPWGQGTLVTVSS VL: QAVLTQPSSLSASPGASASLTCTLRSGINVDTYRIYWYQQKPGSPPQYLLRYKSDSDKQQGSGVPSRFSGSKDASANAGILLISGLQSEDEADYYCVIWHSSAWVFGGGTKLTVL | to a lesser extent | 100% | reacted with the CTS competitor OUB | – | 10% | – | MBG inhibition of HUVEC cell proliferation, human mAbs ([2]; antibody 20 μg/mL, FIG. 3a): significantly reduced

Source: patent US10654925B2, “Anti-marinobufagenin antibodies and uses thereof” (priority 2018, dated 2020)
